Measurements reported in patent publication US20240391991A1, “MODULATION OF WNT SIGNALLING IN PULMONARY DISORDERS” (Surrozen Operating, Inc., priority 2021, published 2024).
Entries after “also recorded” stand apart in the source; their conditions may differ.

B1: RSPO1: R-spondin 1, of a family of ligands that amplify Wnt signals (protein, UniProt Q2MKA7 21-263, looked up)
R-spondin-1: SRGIKGKRQRRISAEGSQACAKGCELCSEVNGCLKCSPKLFILLERNDIRQVGVCLPSCPPGYFDARNPDMNKCIKCKIEHCEACFSHNFCTKCKEGLYLHKGRCYPACPEGSSAANGTMECSSPAQCEMSEWSPWGPCSKKQQLCGFRRGSEERTRRVLHAPVGDHAACSDTKETRRCTVRRVPCPEGQKRRKGGQGRRENANRNLARKESKEAGAGSRRRKGQQQQQQQGTVGPLTSAGPA
B2: SWAP4: FZD4-mono-specific Wnt agonist; anti-FZD antibody with LRP6 binder; heavy/light chains SEQ ID NO: 9 and 10 (antibody)
heavy: EVQLVESGGGLVQPGGSLRLSCAASGFTFTSYYISWVRQAPGKGLEWVAEISPYSGSTYYADSVKGRFTISADTSKNTAYLQMNSLRAEDTAVYYCALRARPPIRLHPRGSVMDYWGQGTLVTVSSGGGGSGGGGSGGGGSEVQLVESGGGLVQPGGSLRLSCAASGFNISYYYIHWVRQAPGKGLEWLASIYPSSGYTYYADSVKGRFTISADTSKNTAYLQMNSLRAEDTAVYYCARSSFYWAMDYWGQGTLVTVSSASTKGPSVFPLAPSSKSTSGGTAALGCLVKDYFPEPVTVSWNSGALTSGVHTFPAVLQSSGLYSLSSVVTVPSSSLGTQTYICNVNHKPSNTKVDKKVEPKSCDKTHTCPPCPAPEAAGGPSVFLFPPKPKDTLMISRTPEVTCVVVDVSHEDPEVKFNWYVDGVEVHNAKTKPREEQYNSTYRVVSVLTVLHQDWLNGKEYKCKVSNKALGAPIEKTISKAKGQPREPQVYTLPPSREEMTKNQVSLTCLVKGFYPSDIAVEWESNGQPENNYKTTPPVLDSDGSFFLYSKLTVDKSRWQQGNVFSCSVMHEALHNHYTQKSLSLSPGK
light: DIQMTQSPSSLSASVGDRVTITCRASQDVSTAVAWYQQKPGKAPKLLIYSASFLYSGVPSRFSGSGSGTDFTLTISSLQPEDFATYYCQQSYTTPPTFGQGTKVEIKGGGGSGGGGSGGGGSDIQMTQSPSSLSASVGDRVTITCRASQSVSSAVAWYQQKPGKAPKLLIYSASSLYSGVPSRFSGSRSGTDFTLTISSLQPEDFATYYCQQSYAAYLFTFGQGTKVEIKRTVAAPSVFIFPPSDEQLKSGTASVVCLLNNFYPREAKVQWKVDNALQSGNSQESVTEQDSKDSTYSLSSTLTLSKADYEKHKVYACEVTHQGLSSPVTKSFNRGEC
B3: SWAP5: FZD-1,2,5,7,8-specific Wnt agonist; anti-FZD antibody with LRP6 VHH on light chain N-terminus; SEQ ID NO: 1 and 2 (protein)
chain 1: EVQLVQSGAEVKKPGASVKVSCKASGYTFTSYGISWVRQAPGQGLEWMGWISAYNGNTNYAQKLQGRVTMTTDTSTSTAYMELRSLRSDDTAVYYCASSKEKATYYYGMDVWGQGTTVTVSSASTKGPSVFPLAPSSKSTSGGTAALGCLVKDYFPEPVTVSWNSGALTSGVHTFPAVLQSSGLYSLSSVVTVPSSSLGTQTYICNVNHKPSNTKVDKKVEPKSCDKTHTCPPCPAPEAAGGPSVFLFPPKPKDTLMISRTPEVTCVVVDVSHEDPEVKFNWYVDGVEVHNAKTKPREEQYNSTYRVVSVLTVLHQDWLNGKEYKCKVSNKALGAPIEKTISKAKGQPREPQVYTLPPSREEMTKNQVSLTCLVKGFYPSDIAVEWESNGQPENNYKTTPPVLDSDGSFFLYSKLTVDKSRWQQGNVFSCSVMHEALHNHYTQKSLSLSPGK
chain 2: DVQLVESGGGLVQAGGSLRLACAGSGRIFAIYDIAWYRHPPGNQRELVAMIRPVVTEIDYADSVKGRFTISRNNAMKTVYLQMNNLKPEDTAVYYCNAKRPWGSRDEYWGQGTQVTVSSGSGSGQAVVLQEPSLSVSPGGTVTLTCGLSSGSVSTNYYPSWYQQTPGQAPRTLIYYTNTRSSDVPERFSGSIVGNKAALTITGAQPDDESVYFCLLYLGRGIWVFGGGTKLTVLGQPKAAPSVTLFPPSSEELQANKATLVCLISDFYPGAVTVAWKADSSPVKAGVETTTPSKQSNNKYAASSYLSLTPEQWKSHRSYSCQVTHEGSTVEKTVAPTECS
B4: SWAP6: FZD1,2,7-specific Wnt agonist; anti-FZD antibody with LRP6 VHH on light chain N-terminus; SEQ ID NO: 12 and 11 (protein)
chain 1: QVQLQQWGAGLLKPSETLSLTCAVSGASFSGHYWTWIRQPPGKGLEWIGEIDHTGSTNYEPSLRSRVTISVDTSKNQFSLNLKSVTAADTAVYYCARGGQGGYDWGHYHGLDVWGQGTTVTVSSASTKGPSVFPLAPSSKSTSGGTAALGCLVKDYFPEPVTVSWNSGALTSGVHTFPAVLQSSGLYSLSSVVTVPSSSLGTQTYICNVNHKPSNTKVDKKVEPKSCDKTHTCPPCPAPEAAGGPSVFLFPPKPKDTLMISRTPEVTCVVVDVSHEDPEVKFNWYVDGVEVHNAKTKPREEQYNSTYRVVSVLTVLHQDWLNGKEYKCKVSNKALGAPIEKTISKAKGQPREPQVYTLPPSREEMTKNQVSLTCLVKGFYPSDIAVEWESNGQPENNYKTTPPVLDSDGSFFLYSKLTVDKSRWQQGNVFSCSVMHEALHNHYTQKSLSLSPGK
chain 2: DVQLVESGGGLVQAGGSLRLACAGSGRIFAIYDIAWYRHPPGNQRELVAMIRPVVTEIDYADSVKGRFTISRNNAMKTVYLQMNNLKPEDTAVYYCNAKRPWGSRDEYWGQGTQVTVSSGSGSGSYVLTQPPSVSVSPGQTASITCSGDKVGHKYASWYQQKPGQSPVLVIYEDSQRPSGIPVRFSGSNSGNTATLTISGTQAMDEADYYCQAWDSSTDVVFGGGTKLTVLGQPKAAPSVTLFPPSSEELQANKATLVCLISDFYPGAVTVAWKADSSPVKAGVETTTPSKQSNNKYAASSYLSLTPEQWKSHRSYSCQVTHEGSTVEKTVAPTECS
B5: RSPO2: the Wnt signaling enhancer RSPO2 (R-spondin 2) (protein, UniProt Q6UXX9 22-243, looked up)
R-spondin-2: QGNRWRRSKRASYVSNPICKGCLSCSKDNGCSRCQQKLFFFLRREGMRQYGECLHSCPSGYYGHRAPDMNRCARCRIENCDSCFSKDFCTKCKVGFYLHRGRCFDECPDGFAPLEETMECVEGCEVGHWSEWGTCSRNNRTCGFKWGLETRTRQIVKKPVKDTILCPTIAESRRCKMTMRHCPGGKRTPKAKEKRNKKKKRKLIERAQEQHSVFLATDRANQ

What was measured:
human AT2 cell organoid [1] = assay: Human AT2 cell organoid growth, CellTiter Glo assay; format: cell-based; settings: for human AT2 culture growth: RSPO alone, Wnt signaling inhibitor C59 present
Procedure: For ex vivo studies, 3D organoid cultures (see, e.g., Zacharias, W. et al. (2018) Nature 555:251-257 and Barkauskas et al. (2017) Development 144:986-997) were constructed by combining primary human lung fibroblasts from healthy, pulmonary fibrosis, or COPD patients with alveolar epithelial cells (AT2 and AEP cells) from patients. Organoids were cultured in SAGM medium with growth factor free Matrigel. The Wnt antagonist and agonist were added in a sequential or concurrent manner to determine the effect on the fibroblast/myofibroblast proliferation, matrix production, alveolar epithelial cell proliferation and AT1/AT2 cell fate trans-differentiation. Alveolar organoids can also be cultured directly from human distal lung cells including purified AT2 cells (Kobayashi et al., (2020) supra).
In all of the AT2 cell organoid experiments, the Wnt signaling inhibitor, C59, was used to prevent endogenous secretion of Wnt ligands. […] AT2 cell organoid growth was assessed with the CellTiter Glo assay.

human AT2 cell organoid [2] = assay: Human AT2 organoid size (diameter, microscopy); format: cell-based; settings: in the absence of RSPO; C59 present; FIG. 6
[3] = test system: acute bleomycin mouse model; assay: Bleomycin-induced acute lung injury (fibrosis) mouse model; format: in vivo; settings: for percentage of lung area affected by fibrosis / fibrosis score (Modified Ashcroft): agent alone, dosed four times between week 1 and week 3, vs anti-GFP; for percentage of lung area affected by fibrosis: FIGS. 10-11; for fibrosis score (Modified Ashcroft): FIGS. 10-12
Excerpt: The acute lung injury (single bleomycin treatment; FIG. 1) and chronic intermittent/low dose bleomycin mouse models (FIG. 2) were used to determine the therapeutic effects of Wnt antagonist and agonist (administered concurrently or sequentially or individually) in combination with or without anti-fibrotic drugs (e.g., pirfenidone and nintedanib) to assess effects on anti-fibrotic and improved respiratory functions (see, e.g., Degryse, A. et al. (2010) Am J Physiol Lung Cell Mol Physiol. 299:442-52). Improvement of fibrosis was observed upon treatment with a WNT agonist, SWAP5 (see, e.g., FIG. 7, FIG. 10). Specifically, bleomycin was administered intratracheally to the mice at day 0, and animals were treated twice weekly with an agonist approach—combination of SWAP5 (FZD1,2,5,7,8 multi-FZD-specific SWAP) and RSPO2 (combo)—for two weeks starting at day 7 until termination at day 21. […] Improvement of fibrosis was also observed upon treatment with a Wnt agonist or the Wnt signaling enhancer RSPO2 alone (FIG. 10).

[4] = combination of SWAP5 and RSPO2 (combo), twice weekly day 7 to day 21, FIG. 7

Molecule	human AT2 culture growth (human AT2 cell organoid [1])	percentage of lung area affected by fibrosis [3]	fibrosis score (Modified Ashcroft) [3]	other results
B1	did not enhance human AT2 culture growth			
B2				human AT2 cell organoid growth as organoid size (diameter) (human AT2 cell organoid [2]): expand AT2 organoids; self-renewal and expansion of human AT2 cells (human AT2 cell organoid [1]; summary of organoid results): promotes the self-renewal and expansion of human AT2 cells
B3		reduced the fibrosis score and percentage of lung area affected; also recorded: reduce the area of the lung that is fibrotic	reduced the fibrosis score; also recorded: lower the severity of fibrosis	area (percent) of lung affected by fibrosis [3, 4]: reduction in the degree of fibrosis severity and the area of the lung affected by fibrosis; also recorded: reduce the area of the lung that is fibrotic; fibrosis severity (fibrosis score) [3, 4]: reduction in the degree of fibrosis severity; also recorded: lower the severity of fibrosis
B4			caused a trend of reduction in the extent of fibrosis	
B5	did not enhance human AT2 culture growth	reduced the fibrosis score and percentage of lung area affected; also recorded: reduce the area of the lung that is fibrotic	reduced the fibrosis score; also recorded: lower the severity of fibrosis	
